The target of the test is Human IL-17RC:Fc (human) (UniProt Q8NAC3). In words: SPR (BIAcore 3000), receptor:Fc captured by anti-human Fc, cytokine as analyte, koff/kon, 1:1 Langmuir fit.

A word on the Kd: it is the constant that tells how readily two partners part at equilibrium. A higher Kd goes with a looser complex.

Chain of Human IL-17A (Q16552 20-155 limits assumed): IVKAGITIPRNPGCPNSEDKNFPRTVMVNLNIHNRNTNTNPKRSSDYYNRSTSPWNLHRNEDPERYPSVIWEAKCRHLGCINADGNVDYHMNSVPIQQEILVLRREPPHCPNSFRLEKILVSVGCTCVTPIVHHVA

Substance “Human IL-17A (from UniProt Q16552 20-155) (ligand)” registered a Kd of 0.05 nM.

Substance “Mouse IL-17F (from UniProt Q7TNI7 29-161) (ligand)” registered a Kd of 0.03 nM. Compared with the last substance, the Kd is about 1.7-fold lower.

The record behind these values is patent US20110008356A1.
